Measurements: publication PMC7395135, “Structures of the human mitochondrial ribosome bound to EF-G1 reveal distinct features of mitochondrial translation elongation” (Nature Communications, 2020)

Target: mitoribosomal protein uL12m (human (endogenous in HEK293S GnTI), UniProt P52815 37-198)
Assay: cryo-EM structure; 150 nM 55S mitoribosomes incubated with 5 uM EF-G1mt and 1 mM GMPPCP at 37 °C for 5 min in HEPES polymix buffer; three classes (I, II, III) from one sample
Settings: both partners purified

B1: human mitochondrial elongation factor G1 (natural protein)
chain: not shown
notes: also called EF-G1mt; source: E. coli BL21(DE3) (RIL), purified (Ni-NTA, cation exchange TSKgel SP-5PW)
B1: binds.
